Results published in patent US20250270254A1, “PROBES AND KITS FOR THE EARLY DIAGNOSIS OF DIFUSE LARGE B-CELL LYMPHOMA” (BEIJING BOE TECHNOLOGY DEVELOPMENT CO., LTD., priority 2022, published 2025).
Where a SMILES comes first, the peptide text is derived from it.

B1: Bta893 (peptide)
peptide: HCWRGF
notes: Synthetic polypeptide probe from the Mix-Split library; spotted on a bare gold SPRi chip; also called His-Cys-Trp-Arg-Gly-Phe
B2: BtaPL4 (peptide)
peptide: ICWRRRRRRRRRRRF
notes: Designed synthetic polypeptide probe; spotted on a bare gold SPRi chip; also called Ile-Cys-Trp-Arg11-Phe
B3: BtaPL5 (peptide)
peptide: ICWRRRRRRRRRRRRRF
notes: Designed synthetic polypeptide probe; spotted on a bare gold SPRi chip; also called Ile-Cys-Trp-Arg13-Phe
B4: BtaE1 (peptide)
peptide: ICWRRRGGGF
notes: Designed synthetic polypeptide probe; spotted on a bare gold SPRi chip; also called Ile-Cys-Trp-Arg3Gly3-Phe
B5: BtaE2 (peptide)
peptide: ICWGGRRRGGGF
notes: Designed synthetic polypeptide probe; spotted on a bare gold SPRi chip; also called Ile-Cys-Trp-Gly2Arg3Gly3-Phe
B6: BtaE3 (peptide)
peptide: ICWGRRRGGF
notes: Designed synthetic polypeptide probe; spotted on a bare gold SPRi chip; also called Ile-Cys-Trp-Gly-Arg3-Gly2-Phe
B7: Bta1335 (peptide)
peptide: CCHRGF
notes: Synthetic polypeptide probe from the Mix-Split library; spotted on a bare gold SPRi chip; also called Cys-Cys-His-Arg-Gly-Phe
B8: Bta3097 (peptide)
peptide: GCYRRF
notes: Synthetic polypeptide probe from the Mix-Split library; spotted on a bare gold SPRi chip; also called Gly-Cys-Tyr-Arg-Arg-Phe
B9: BtaP1 (peptide)
peptide: HCWRRF
notes: Designed synthetic polypeptide probe; spotted on a bare gold SPRi chip; also called His-Cys-Trp-Arg-Arg-Phe
B10: BtaP2 (peptide)
peptide: ICWRRF
notes: Designed synthetic polypeptide probe; spotted on a bare gold SPRi chip; also called Ile-Cys-Trp-Arg-Arg-Phe
B11: BtaP3 (peptide)
peptide: ICWRRGI
notes: Designed synthetic polypeptide probe; spotted on a bare gold SPRi chip; also called Ile-Cys-Trp-Arg-Arg-Gly-Ile
B12: BtaPL1 (peptide)
peptide: ICWRRRRRF
notes: Designed synthetic polypeptide probe; spotted on a bare gold SPRi chip; also called Ile-Cys-Trp-Arg5-Phe
B13: BtaPL2 (peptide)
peptide: ICWRRRRRRRF
notes: Designed synthetic polypeptide probe; spotted on a bare gold SPRi chip; also called Ile-Cys-Trp-Arg7-Phe
B14: BtaPL3 (peptide)
peptide: ICWRRRRRRRRRF
notes: Designed synthetic polypeptide probe; spotted on a bare gold SPRi chip; also called Ile-Cys-Trp-Arg9-Phe

The molecules below were run against CD138 (UniProt P18827 23-251) (assay: SPR imaging (SPRi); probe spotted on bare gold chip, CD138 flowed at 50-800 nM). Settings: not given.
Chain of CD138 (P18827 23-251): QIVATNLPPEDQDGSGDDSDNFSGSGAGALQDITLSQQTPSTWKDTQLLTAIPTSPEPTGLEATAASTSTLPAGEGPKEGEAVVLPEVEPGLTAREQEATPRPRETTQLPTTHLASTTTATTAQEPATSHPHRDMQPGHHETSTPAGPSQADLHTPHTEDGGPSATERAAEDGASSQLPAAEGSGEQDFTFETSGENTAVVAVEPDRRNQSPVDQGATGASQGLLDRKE

**Q.** For B1, which Kd is on record?
**A.** 1.29 nM

**Q.** B2 was tested. Which Kd did it give?
**A.** 9.21 nM

**Q.** B3 was tested. Which Kd did it give?
**A.** 85.7 nM

**Q.** How did the Kd turn out when B4 was run?
**A.** 0.702 nM

**Q.** How did the Kd turn out when B5 was run?
**A.** 0.309 nM

**Q.** How did the Kd turn out when B6 was run?
**A.** 0.121 nM

**Q.** Which Kd does the source give for B7 here?
**A.** 2.57 nM

**Q.** For B8, which Kd is on record?
**A.** 5.26 nM

**Q.** For B9, which Kd is on record?
**A.** 1.15 nM

**Q.** For B10, which Kd is on record?
**A.** 1.02 nM

**Q.** How did the Kd turn out when B11 was run?
**A.** 0.977 nM

**Q.** Which Kd does the source give for B12 here?
**A.** 0.856 nM

**Q.** Which Kd does the source give for B13 here?
**A.** 0.731 nM

**Q.** With B14 as the molecule, how does the Kd read?
**A.** 6.56 nM

Each molecule was assayed on diffuse large B-cell lymphoma cells (assay: Analysis of probe specificity: probe-coupled magnetic bead capture from mixed cells, flow cytometry). Settings: positive cells (diffuse large B-cell lymphoma cells) mixed with negative cells (HELA cells) 1:10; proportion of positive cells among captured cells by flow cytometry.
Type: cell-based
Description: The diagnostic specificity of the small molecular probe was detected using flow cytometry and the specific steps were as follows: • 1) Preparation of gradient concentration of cell samples: positive cells (diffuse large B-cell lymphoma cells) were mixed with negative cells (HELA cells) at a ratio of 1:10 and repeatedly pipetted to mix well; • 2) Probe-bead coupling: the reaction was performed in PBS buffer, with a bead-coupling concentration of 1 mg/mL, and 1 mg of beads corresponded to 10 μg of the BtaE3 probe, with gentle shaking for 1 h at room temperature. This was followed by washing five times with PBS buffer containing 0.01% BSA, standing for 30 s each time, and finally resuspending in PBS buffer at a concentration of 15 mg/mL; • 3) Positive cell enrichment: cells were thoroughly mixed with the magnetic bead suspension, with shaking by hand for 30 min at 4° C. in an ice box, followed by washing three times with PBS (containing 0.1% BSA and 2 mM EDTA) buffer and resuspending in PBS; • 4) Specificity analysis: The captured cells were separated using a magnetic field, and the protein expression profile was quantified by flow cytometry to calculate the proportion of positive cells.

**Q.** Which specificity for detection does the source give for `CC[C@H](C)[C@H](N)C(=O)N[C@@H](CS)C(=O)N[C@@H](Cc1c[nH]c2ccccc12)C(=O)NCC(=O)N[C@@H](CCCNC(=N)N)C(=O)N[C@@H](CCCNC(=N)N)C(=O)N[C@@H](CCCNC(=N)N)C(=O)NCC(=O)NCC(=O)N[C@@H](Cc1ccccc1)C(=O)O` [BtaE3, Ile-Cys-Trp-Gly-Arg3-Gly2-Phe] (H-ICWGRRRGGF-OH; N-terminus and C-terminus assumed) here?
**A.** > 90%
